Biological target: T1, CD70 (UniProt P32970)
T1 sequence (looked up): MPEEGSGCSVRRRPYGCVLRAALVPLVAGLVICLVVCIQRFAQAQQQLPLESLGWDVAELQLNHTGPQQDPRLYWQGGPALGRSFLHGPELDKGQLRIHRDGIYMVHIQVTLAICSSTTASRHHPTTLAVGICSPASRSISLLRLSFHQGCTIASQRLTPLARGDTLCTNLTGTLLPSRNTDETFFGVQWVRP
Assay: cell-based or functional assay

percentage of CD107a positive T cells in CD8 positive T cells; CD27 CAR + LACO (A40C.28) T cells stimulated by 786-O (CD70 + + +): 27.3% | percentage of CD107a positive T cells in CD8 positive T cells; CD27 CAR + LACO (A40C.28) T cells stimulated by A498-CBG (CD70 + + +): 22.7% | percentage of CD107a positive T cells in CD8 positive T cells; CD27 CAR + LACO (A40C.28) T cells stimulated by A549-CBG (CD70 +): 3.3% | percentage of CD107a positive T cells in CD8 positive T cells; CD27 CAR + LACO (A40C.28) T cells stimulated by HS766T-CBG (CD70 +): 9.7% | percentage of CD107a positive T cells in CD8 positive T cells; CD27 CAR + LACO (A40C.28) T cells stimulated by Jeko-1-CBG (CD70 + + +): 34.4% | percentage of CD107a positive T cells in CD8 positive T cells; CD27 CAR + LACO (A40C.28) T cells stimulated by OVCAR3 (CD70 +): 6.9% | percentage of CD107a positive T cells in CD8 positive T cells; CD27 CAR + LACO (A40C.28) T cells stimulated by PC3-CBG (CD70 + +): 15.9% | percentage of CD107a positive T cells in CD8 positive T cells; CD27 CAR + LACO (A40C.28) T cells stimulated by Raji-CBG (CD70 + + +): 30.3% | percentage of CD107a positive T cells in CD8 positive T cells; CD27 CAR + LACO (A40C.28) T cells stimulated by SKOV3-CBG (CD70 +): 3.3% | percentage of CD107a positive T cells in CD8 positive T cells; CD27 CAR + LACO (A40C.28) T cells stimulated by THP1 (CD70 + +): 22.2% | percentage of CD107a positive T cells in CD8 positive T cells; CD27 CAR + LACO (A40C.28) T cells stimulated by U87-CBG (CD70 + + +): 32% | percentage of CD107a positive T cells in CD8 positive T cells; CD27 CAR + LACO (A40C.28) T cells stimulated by U937 (CD70 + +): 9% | percentage of CD107a positive T cells in CD8 positive T cells; CD27 CAR T cells stimulated by 786-O (CD70 + + +): 27.6% | percentage of CD107a positive T cells in CD8 positive T cells; CD27 CAR T cells stimulated by A498-CBG (CD70 + + +): 30.8% | percentage of CD107a positive T cells in CD8 positive T cells; CD27 CAR T cells stimulated by A549-CBG (CD70 +): 4.4% | percentage of CD107a positive T cells in CD8 positive T cells; CD27 CAR T cells stimulated by HS766T-CBG (CD70 +): 15% | percentage of CD107a positive T cells in CD8 positive T cells; CD27 CAR T cells stimulated by Jeko-1-CBG (CD70 + + +): 23.1% | percentage of CD107a positive T cells in CD8 positive T cells; CD27 CAR T cells stimulated by OVCAR3 (CD70 +): 8.8% | percentage of CD107a positive T cells in CD8 positive T cells; CD27 CAR T cells stimulated by PC3-CBG (CD70 + +): 16% | percentage of CD107a positive T cells in CD8 positive T cells; CD27 CAR T cells stimulated by Raji-CBG (CD70 + + +): 29.9% | percentage of CD107a positive T cells in CD8 positive T cells; CD27 CAR T cells stimulated by SKOV3-CBG (CD70 +): 3.2% | percentage of CD107a positive T cells in CD8 positive T cells; CD27 CAR T cells stimulated by THP1 (CD70 + +): 20.2% | percentage of CD107a positive T cells in CD8 positive T cells; CD27 CAR T cells stimulated by U87-CBG (CD70 + + +): 37.8% | percentage of CD107a positive T cells in CD8 positive T cells; CD27 CAR T cells stimulated by U937 (CD70 + +): 7.1%
B1: CD27.Z (CD70 CAR) (protein)
chain: ATPAPKSCPERHYWAQGKLCCQMCEPGTFLVKDCDQHRKAAQCDPCIPGVSFSPDHHTRPHCESCRHCNSGLLVRNCTITANAECACRNGWQCRDKECTECDPLPNPSLTARSSQALSPHPQPTHLPYVSEMLEARTAGHMQTLADFRQLPARTLSTHWPPQRSLCSSDFIRILVIFSGMFLVFTLAGALFLHQRRKYRSNKGESPVEPAEPCRYSCPREEEGSTIPIQEDYRKPEPACSPRVKFSRSADAPAYQQGQNQLYNELNLGRREEYDVLDKRRGRDPEMGGKPRRKNPQEGLYNELQKDKMAEAYSEIGMKGERRRGKGHDGLYQGLSTATKDTYDALHMQALPPR
